Laboratory results reported in US8071348B2, “Protein tyrosine phosphatase substrate-trapping double mutant and uses thereof” (Albert Einstein College of Medicine of Yeshiva University, priority 2002, dated 2011).

T1: Ac-Asp-Ala-Asp-Glu-F2Pmp-Leu-NH2 (Homo sapiens, UniProt P18031, C215S)
T1 construct: The catalytic domain of PTP1B (residues 1 to 321) was used for in vitro study; made in house; host or cells: E. coli (pT7-7 plasmids)
T1 sequence (P18031 1-321 C215S): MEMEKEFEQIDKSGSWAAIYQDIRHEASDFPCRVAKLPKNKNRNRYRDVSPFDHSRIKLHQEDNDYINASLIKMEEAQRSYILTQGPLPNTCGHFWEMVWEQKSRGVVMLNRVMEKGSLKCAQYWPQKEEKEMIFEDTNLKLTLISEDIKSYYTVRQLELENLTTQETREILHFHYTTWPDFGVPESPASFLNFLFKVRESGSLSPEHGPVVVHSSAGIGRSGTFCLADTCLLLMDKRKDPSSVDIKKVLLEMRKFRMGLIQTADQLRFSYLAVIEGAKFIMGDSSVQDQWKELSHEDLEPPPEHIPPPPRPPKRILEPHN

T2: Ac-Asp-Ala-Asp-Glu-F2Pmp-Leu-NH2 (Homo sapiens, UniProt P18031, C215S/Q262A)
T2 construct: The catalytic domain of PTP1B (residues 1 to 321) was used for in vitro study; made in house; host or cells: E. coli (pT7-7 plasmids)
T2 sequence (P18031 1-321 C215S/Q262A): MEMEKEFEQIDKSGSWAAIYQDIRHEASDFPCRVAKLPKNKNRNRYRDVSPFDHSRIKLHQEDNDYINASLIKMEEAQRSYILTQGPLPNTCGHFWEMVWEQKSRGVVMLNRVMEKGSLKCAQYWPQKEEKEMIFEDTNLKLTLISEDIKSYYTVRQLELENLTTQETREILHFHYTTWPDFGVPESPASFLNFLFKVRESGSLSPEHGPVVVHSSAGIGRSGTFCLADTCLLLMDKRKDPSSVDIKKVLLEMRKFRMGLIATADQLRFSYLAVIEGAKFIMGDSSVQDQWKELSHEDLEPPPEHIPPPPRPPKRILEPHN


Legend:
[1] = tested on: Ac-Asp-Ala-Asp-Glu-F2Pmp-Leu-NH2; details: cited from earlier work
[2] = tested on: EGFR^988-998 peptide, DADEpYLIPQQG; assay: Kinetic constants for PTP1B-catalyzed hydrolysis of pTyr-containing EGFR988-998 peptide; type: biochemical; details: EGFR988-998 peptide as substrate
In short: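 PTP1B catalytic domain (residues 1–321), wild-type or mutant, expressed in E. coli. Continuous assay at 25° C., pH 7.0, in 50 mM 3,3-dimethylglutarate with 1 mM EDTA (ionic strength 0.15 M). Dephosphorylation followed by absorbance increase at 282 nm or fluorescence at 305 nm to obtain kcat and Km.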

[3] = molecular target: T1, Ac-Asp-Ala-Asp-Glu-F2Pmp-Leu-NH2; assay: Isothermal titration calorimetry, binding of PTP1B and mutants to F2Pmp peptide; details: lower temperature (15° C.)
Protocol: (§1) FIG. 3 portrays calorimetric isothermal titration for the reaction of peptide Ac-Asp-Ala-Asp-Glu-F2Pmp-Leu-NH2 with PTP1B/D181A/Q262A. The upper graph depicts raw data for thirty 8-μl injections of the peptide (0.5 mM stock) into the isothermal cell containing 32 μM PTP1B/D181A/Q262A, at 4-min intervals and 25° C. Both the protein and the peptide were in 50 mM 3,3-dimethylglutarate buffer (I=0.15 M, pH 7.0) containing 1 mM DTT. The lower graph depicts an integration curve showing experimental points that were obtained by integration of the above peaks as plotted against the molar ratio of the peptide to PTP1B/D181A/Q262A within the reaction cell. The solid line corresponds to the best fit to the data according to the nonlinear, least-squares regression algorithm, ORIGIN (29).
(§2) All isothermal titration calorimetry experiments were performed using an MCS Isothermal Titration Calorimetry System from Microcal Inc. (Northampton, Mass.). […] The ionic strength of the buffer was adjusted to 0.15 M by addition of NaCl. Protein concentration in the calorimeter cell was 27-85 μM, while the ligand concentration in the syringe was 0.37-1 mM.
(§3) The PTP1B samples used in the isothermal titration calorimetry experiments were dialyzed completely against buffer. High-concentration stock solutions were prepared for ligands with distilled water, and adjusted to pH 7.0. Stock was diluted at least 26-fold with 50 mM 3,3-dimethylglutarate buffer before titration. Protein dilution during titration was determined by titration of buffer into the protein solution. […] The heat of ligand dilution was corrected by subtracting the average heat of injection after saturation.
(§4) The binding data were analyzed using ORIGIN software (29). Binding constant, K, and enthalpy change, ΔH, were used to calculate free energy change, ΔG, and entropy change, ΔS, according to equation [1]: −RTLnK=ΔG=ΔH−TΔS [1] where R is the gas constant and T is the absolute temperature.

[4] = molecular target: T2, Ac-Asp-Ala-Asp-Glu-F2Pmp-Leu-NH2; assay: as above; details: 25° C.; one peak absorbing heat, the other releasing heat
Protocol: as §1, §2, §3, §4

Molecule | affinity compared with wild-type enzyme ([1]; F2Pmp peptide, previously determined (24)) | Kd ([1]; ITC, 25° C. and pH 7.0, data from (24)) | phosphatase activity [2] | shape of ITC titration curve [3] | shape of ITC titration curve [4]
C215S: existing PTP1B substrate-trapping mutant, active site Cys215 replaced by Ser (protein, UniProt P18031 1-435, looked up, variant C215S) Tyrosine-protein phosphatase …: MEMEKEFEQIDKSGSWAAIYQDIRHEASDFPCRVAKLPKNKNRNRYRDVSPFDHSRIKLHQEDNDYINASLIKMEEAQRSYILTQGPLPNTCGHFWEMVWEQKSRGVVMLNRVMEKGSLKCAQYWPQKEEKEMIFEDTNLKLTLISEDIKSYYTVRQLELENLTTQETREILHFHYTTWPDFGVPESPASFLNFLFKVRESGSLSPEHGPVVVHSSAGIGRSGTFCLADTCLLLMDKRKDPSSVDIKKVLLEMRKFRMGLIQTADQLRFSYLAVIEGAKFIMGDSSVQDQWKELSHEDLEPPPEHIPPPPRPPKRILEPHNGKCREFFPNHQWVKEETQEDKDCPIKEEKGSPLNAAPYGIESMSQDTEVRSRVVGGSLRGAQAASPAKGEPSLPEKDEDHALSYWKPFLVNMCVATVLTAGAYLCYRFLFNSNT | same affinity as the wild-type enzyme | 190 ± 30 nM | no measurable activities | displayed two peaks | –
C215S/Q262A: PTP1B double mutant, Cys215 to Ser and Gln262 to Ala (protein, UniProt P18031 1-435, looked up, variant C215S Q262A) Tyrosine-protein phosphatase …: MEMEKEFEQIDKSGSWAAIYQDIRHEASDFPCRVAKLPKNKNRNRYRDVSPFDHSRIKLHQEDNDYINASLIKMEEAQRSYILTQGPLPNTCGHFWEMVWEQKSRGVVMLNRVMEKGSLKCAQYWPQKEEKEMIFEDTNLKLTLISEDIKSYYTVRQLELENLTTQETREILHFHYTTWPDFGVPESPASFLNFLFKVRESGSLSPEHGPVVVHSSAGIGRSGTFCLADTCLLLMDKRKDPSSVDIKKVLLEMRKFRMGLIATADQLRFSYLAVIEGAKFIMGDSSVQDQWKELSHEDLEPPPEHIPPPPRPPKRILEPHNGKCREFFPNHQWVKEETQEDKDCPIKEEKGSPLNAAPYGIESMSQDTEVRSRVVGGSLRGAQAASPAKGEPSLPEKDEDHALSYWKPFLVNMCVATVLTAGAYLCYRFLFNSNT | – | – | no measurable activities | – | displayed two peaks
